According to PMC3179463:

Columns and labels:
[1] = molecular target: MALT1 tandem Ig-like domains (IgL1–IgL2) (human); assay: SEC; Superdex-200 16/60, 10 mg/mL protein, Tris buffer pH 8.0 (50 mM in the methods, 20 mM in the legend), 500 mM NaCl, 1 mM TCEP, 4°C; mass estimated from standard proteins
[2] = molecular target: MALT1 tandem Ig-like domains (IgL1–IgL2) (human); assay: AUC; sedimentation equilibrium, Beckman Optima XL-A, An-60 Ti rotor; 20 mM Tris-HCl pH 8, 200 mM NaCl, 1 mM TCEP; 12,000 and 15,000 rpm, 4°C; 0.25, 0.5 and 1.0 mg/ml; global self-association fit

MALT1 tandem Ig-like domains (IgL1–IgL2) (domain or fragment)
stoichiometry N [1]: 4 | stoichiometry N [2]: 3.5
